HBV-DNA value, fold over the control cell lines data for 1 substance are collected here from patent EP0952217A2.

The test addresses SCCA1 recombinant protein expressed on transfected HepG2 and CHO cells (human) (UniProt P29508). Put plainly: virus-to-cell binding assay: transfected cells incubated 20 min with HBV-positive serum and washed, cell-associated HBV-DNA measured by hybrid capture.
UniProt P29508, sequence (P29508 whole entry T357A): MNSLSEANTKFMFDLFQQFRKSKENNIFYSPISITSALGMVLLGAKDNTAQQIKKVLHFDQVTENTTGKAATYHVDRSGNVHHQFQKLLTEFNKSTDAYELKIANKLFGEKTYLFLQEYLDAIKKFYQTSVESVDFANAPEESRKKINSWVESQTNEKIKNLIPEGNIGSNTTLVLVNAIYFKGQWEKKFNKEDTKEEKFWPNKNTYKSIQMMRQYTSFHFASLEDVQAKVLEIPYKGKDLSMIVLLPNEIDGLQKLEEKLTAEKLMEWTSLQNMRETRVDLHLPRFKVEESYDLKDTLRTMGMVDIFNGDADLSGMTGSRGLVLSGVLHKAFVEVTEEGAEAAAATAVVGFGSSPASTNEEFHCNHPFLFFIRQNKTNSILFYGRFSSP

As for “HBV viral particles from HBV-DNA positive serum of patients with acute hepatitis B”, the HBV-DNA value, fold over the control cell lines was > 8 .fold.
